Experimental data published in IntAct's records for PubMed 32296183.

B1: Dolichol kinase (Homo sapiens), Q9UPQ8 (parent)
chain: MTRECPSPAPGPGAPLSGSVLAEAAVVFAVVLSIHATVWDRYSWCAVALAVQAFYVQYKWDRLLQQGSAVFQFRMSANSGLLPASMVMPLLGLVMKERCQTAGNPFFERFGIVVAATGMAVALFSSVLALGITRPVPTNTCVILGLAGGVIIYIMKHSLSVGEVIEVLEVLLIFVYLNMILLYLLPRCFTPGEALLVLGGISFVLNQLIKRSLTLVESQGDPVDFFLLVVVVGMVLMGIFFSTLFVFMDSGTWASSIFFHLMTCVLSLGVVLPWLHRLIRRNPLLWLLQFLFQTDTRIYLLAYWSLLATLACLVVLYQNAKRSSSESKKHQAPTIARKYFHLIVVATYIPGIIFDRPLLYVAATVCLAVFIFLEYVRYFRIKPLGHTLRSFLSLFLDERDSGPLILTHIYLLLGMSLPIWLIPRPCTQKGSLGGARALVPYAGVLAVGVGDTVASIFGSTMGEIRWPGTKKTFEGTMTSIFAQIISVALILIFDSGVDLNYSYAWILGSISTVSLLEAYTTQIDNLLLPLYLLILLMA

Variants of: B1
Conditions: with kca10_human KCNA10, Q16322
Chain of kca10_human KCNA10, Q16322 (Q16322 whole entry): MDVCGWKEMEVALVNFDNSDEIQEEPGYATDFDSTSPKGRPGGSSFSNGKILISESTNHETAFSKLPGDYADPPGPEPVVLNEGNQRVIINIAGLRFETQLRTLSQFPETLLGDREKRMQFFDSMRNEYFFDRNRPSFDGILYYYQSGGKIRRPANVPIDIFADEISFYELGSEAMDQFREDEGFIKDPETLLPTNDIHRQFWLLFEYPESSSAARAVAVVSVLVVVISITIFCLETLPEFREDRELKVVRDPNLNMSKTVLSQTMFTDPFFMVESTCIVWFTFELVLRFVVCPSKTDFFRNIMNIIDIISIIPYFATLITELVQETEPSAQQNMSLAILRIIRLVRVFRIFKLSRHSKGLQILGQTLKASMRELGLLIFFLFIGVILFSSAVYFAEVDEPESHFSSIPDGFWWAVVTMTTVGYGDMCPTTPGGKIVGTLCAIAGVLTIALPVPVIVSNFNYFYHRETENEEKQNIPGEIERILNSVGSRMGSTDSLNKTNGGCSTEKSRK

| effect of a mutation on the interaction | Variant |
| --- | --- |
| with no effect | MTRECPSPAPGPGAPLSGSVLAEAAVVFAVVLSIHATVWDRYSWCAVALAVQAFYVQYKWDRLLQQGSAVFQFRMSANSGLLPASMVMPLLGLVMKERCQTAGNPFFERFGIVVAATGMAVALFSSVLALGITRPVPTNTCVILGLAGGVIIYIMKHSLSVGEVIEVLEVLLIFVYLNMILLYLLPRCFTPGEALLVLGGISFVLNQLIKRSLTLVESQGDPVDFFLLVVVVGMVLMGIFFSTLFVFMDSGTWASSIFFHLMTCVLSLGVVLPWLHRLIRRNPLLWLLQFLFQTDTRIYLLAYWSLLATLACLVVLYQNAKRSSSESKKHQAPTIARKYFHLIVVATYIPGIIFDRPLLYVAATVCLAVFIFLEYVRYFRIKPLGHTLRSFLSLFLDERDSGPLILTHIYLLLGMSLPIWLIPRPCTQKGSLGGARALVPSAGVLAVGVGDTVASIFGSTMGEIRWPGTKKTFEGTMTSIFAQIISVALILIFDSGVDLNYSYAWILGSISTVSLLEAYTTQIDNLLLPLYLLILLMA [Y441S] |

Variants of: B1
Conditions: with kcna1_human KCNA1, Q09470
Chain of kcna1_human KCNA1, Q09470 (Q09470 whole entry): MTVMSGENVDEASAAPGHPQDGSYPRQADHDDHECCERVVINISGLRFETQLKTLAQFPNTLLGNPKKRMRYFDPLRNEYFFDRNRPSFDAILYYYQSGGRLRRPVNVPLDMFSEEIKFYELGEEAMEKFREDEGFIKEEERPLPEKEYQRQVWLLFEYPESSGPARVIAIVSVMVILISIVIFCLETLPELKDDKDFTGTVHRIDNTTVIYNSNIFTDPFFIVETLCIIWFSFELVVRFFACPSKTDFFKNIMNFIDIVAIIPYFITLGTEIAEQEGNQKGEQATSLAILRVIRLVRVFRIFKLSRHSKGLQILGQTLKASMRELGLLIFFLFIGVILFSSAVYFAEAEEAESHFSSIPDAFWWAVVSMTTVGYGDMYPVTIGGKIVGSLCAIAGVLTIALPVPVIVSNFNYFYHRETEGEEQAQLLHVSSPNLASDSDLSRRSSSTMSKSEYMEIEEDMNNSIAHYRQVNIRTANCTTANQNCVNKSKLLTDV

| effect of a mutation on the interaction | Variant |
| --- | --- |
| with no effect | MTRECPSPAPGPGAPLSGSVLAEAAVVFAVVLSIHATVWDRYSWCAVALAVQAFYVQYKWDRLLQQGSAVFQFRMSANSGLLPASMVMPLLGLVMKERCQTAGNPFFERFGIVVAATGMAVALFSSVLALGITRPVPTNTCVILGLAGGVIIYIMKHSLSVGEVIEVLEVLLIFVYLNMILLYLLPRCFTPGEALLVLGGISFVLNQLIKRSLTLVESQGDPVDFFLLVVVVGMVLMGIFFSTLFVFMDSGTWASSIFFHLMTCVLSLGVVLPWLHRLIRRNPLLWLLQFLFQTDTRIYLLAYWSLLATLACLVVLYQNAKRSSSESKKHQAPTIARKYFHLIVVATYIPGIIFDRPLLYVAATVCLAVFIFLEYVRYFRIKPLGHTLRSFLSLFLDERDSGPLILTHIYLLLGMSLPIWLIPRPCTQKGSLGGARALVPSAGVLAVGVGDTVASIFGSTMGEIRWPGTKKTFEGTMTSIFAQIISVALILIFDSGVDLNYSYAWILGSISTVSLLEAYTTQIDNLLLPLYLLILLMA [Y441S] |

Variants of: B1
Conditions: with synpr_human SYNPR

| effect of a mutation on the interaction | Variant |
| --- | --- |
| disrupting interaction strength | MTRECPSPAPGPGAPLSGSVLAEAAVVFAVVLSIHATVWDRYSWCAVALAVQAFYVQYKWDRLLQQGSAVFQFRMSANSGLLPASMVMPLLGLVMKERCQTAGNPFFERFGIVVAATGMAVALFSSVLALGITRPVPTNTCVILGLAGGVIIYIMKHSLSVGEVIEVLEVLLIFVYLNMILLYLLPRCFTPGEALLVLGGISFVLNQLIKRSLTLVESQGDPVDFFLLVVVVGMVLMGIFFSTLFVFMDSGTWASSIFFHLMTCVLSLGVVLPWLHRLIRRNPLLWLLQFLFQTDTRIYLLAYWSLLATLACLVVLYQNAKRSSSESKKHQAPTIARKYFHLIVVATYIPGIIFDRPLLYVAATVCLAVFIFLEYVRYFRIKPLGHTLRSFLSLFLDERDSGPLILTHIYLLLGMSLPIWLIPRPCTQKGSLGGARALVPSAGVLAVGVGDTVASIFGSTMGEIRWPGTKKTFEGTMTSIFAQIISVALILIFDSGVDLNYSYAWILGSISTVSLLEAYTTQIDNLLLPLYLLILLMA [Y441S] |

Variants of: B1
Conditions: with tm45b_human TMEM45B

| effect of a mutation on the interaction | Variant |
| --- | --- |
| disrupting interaction strength | MTRECPSPAPGPGAPLSGSVLAEAAVVFAVVLSIHATVWDRYSWCAVALAVQAFYVQYKWDRLLQQGSAVFQFRMSANSGLLPASMVMPLLGLVMKERCQTAGNPFFERFGIVVAATGMAVALFSSVLALGITRPVPTNTCVILGLAGGVIIYIMKHSLSVGEVIEVLEVLLIFVYLNMILLYLLPRCFTPGEALLVLGGISFVLNQLIKRSLTLVESQGDPVDFFLLVVVVGMVLMGIFFSTLFVFMDSGTWASSIFFHLMTCVLSLGVVLPWLHRLIRRNPLLWLLQFLFQTDTRIYLLAYWSLLATLACLVVLYQNAKRSSSESKKHQAPTIARKYFHLIVVATYIPGIIFDRPLLYVAATVCLAVFIFLEYVRYFRIKPLGHTLRSFLSLFLDERDSGPLILTHIYLLLGMSLPIWLIPRPCTQKGSLGGARALVPSAGVLAVGVGDTVASIFGSTMGEIRWPGTKKTFEGTMTSIFAQIISVALILIFDSGVDLNYSYAWILGSISTVSLLEAYTTQIDNLLLPLYLLILLMA [Y441S] |

Variants of: B1
Conditions: with cd79a_human CD79A

| effect of a mutation on the interaction | Variant |
| --- | --- |
| with no effect | MTRECPSPAPGPGAPLSGSVLAEAAVVFAVVLSIHATVWDRYSWCAVALAVQAFYVQYKWDRLLQQGSAVFQFRMSANSGLLPASMVMPLLGLVMKERCQTAGNPFFERFGIVVAATGMAVALFSSVLALGITRPVPTNTCVILGLAGGVIIYIMKHSLSVGEVIEVLEVLLIFVYLNMILLYLLPRCFTPGEALLVLGGISFVLNQLIKRSLTLVESQGDPVDFFLLVVVVGMVLMGIFFSTLFVFMDSGTWASSIFFHLMTCVLSLGVVLPWLHRLIRRNPLLWLLQFLFQTDTRIYLLAYWSLLATLACLVVLYQNAKRSSSESKKHQAPTIARKYFHLIVVATYIPGIIFDRPLLYVAATVCLAVFIFLEYVRYFRIKPLGHTLRSFLSLFLDERDSGPLILTHIYLLLGMSLPIWLIPRPCTQKGSLGGARALVPSAGVLAVGVGDTVASIFGSTMGEIRWPGTKKTFEGTMTSIFAQIISVALILIFDSGVDLNYSYAWILGSISTVSLLEAYTTQIDNLLLPLYLLILLMA [Y441S] |

Variants of: B1
Conditions: with cxa8_human GJA8, P48165
Chain of cxa8_human GJA8, P48165 (P48165 whole entry): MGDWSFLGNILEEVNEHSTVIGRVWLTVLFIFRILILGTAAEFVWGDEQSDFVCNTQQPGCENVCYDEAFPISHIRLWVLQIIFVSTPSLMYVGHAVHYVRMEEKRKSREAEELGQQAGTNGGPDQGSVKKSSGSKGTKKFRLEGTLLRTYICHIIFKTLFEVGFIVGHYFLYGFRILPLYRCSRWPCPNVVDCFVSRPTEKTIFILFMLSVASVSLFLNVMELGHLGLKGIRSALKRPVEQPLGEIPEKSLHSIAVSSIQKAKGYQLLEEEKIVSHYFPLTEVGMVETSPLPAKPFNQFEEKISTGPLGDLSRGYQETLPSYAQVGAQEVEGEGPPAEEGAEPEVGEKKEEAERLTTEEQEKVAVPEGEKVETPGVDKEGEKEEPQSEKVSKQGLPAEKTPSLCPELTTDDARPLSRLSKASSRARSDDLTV

| effect of a mutation on the interaction | Variant |
| --- | --- |
| with no effect | MTRECPSPAPGPGAPLSGSVLAEAAVVFAVVLSIHATVWDRYSWCAVALAVQAFYVQYKWDRLLQQGSAVFQFRMSANSGLLPASMVMPLLGLVMKERCQTAGNPFFERFGIVVAATGMAVALFSSVLALGITRPVPTNTCVILGLAGGVIIYIMKHSLSVGEVIEVLEVLLIFVYLNMILLYLLPRCFTPGEALLVLGGISFVLNQLIKRSLTLVESQGDPVDFFLLVVVVGMVLMGIFFSTLFVFMDSGTWASSIFFHLMTCVLSLGVVLPWLHRLIRRNPLLWLLQFLFQTDTRIYLLAYWSLLATLACLVVLYQNAKRSSSESKKHQAPTIARKYFHLIVVATYIPGIIFDRPLLYVAATVCLAVFIFLEYVRYFRIKPLGHTLRSFLSLFLDERDSGPLILTHIYLLLGMSLPIWLIPRPCTQKGSLGGARALVPSAGVLAVGVGDTVASIFGSTMGEIRWPGTKKTFEGTMTSIFAQIISVALILIFDSGVDLNYSYAWILGSISTVSLLEAYTTQIDNLLLPLYLLILLMA [Y441S] |
